The chains are these.
B1: NEK8 (parent)
chain: VTIKHVACGDFFTACLTDRGIIMT
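Further: lentivirally expressed fusions sorted by FACS into six bins by GFP to DsRed ratio, PSI derived from sequencing read proportions per bin multiplied by bin number.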

In this series the parent is B1. The series is described as follows: protein stability index of a GFP-peptide fusion (GPS, HEK-293T) (PSI 1-6); higher = more stable. The note with it: c terminus: a fixed tail appended.
Regarding VTIKHVACGDFFTAFLTDRGIIMT, the protein stability index was found to be 3.35.

On to VTIKHVACGDFFTARLTDRGIIMT, for which the protein stability index amounted to 2.91.

As to VTIKHVACGDFFTALLTDRGIIMT, the protein stability index was 2.37.

As to VTIKHVACGDFFTAQLTDRGIIMT, the protein stability index was 2.59.

Consider VTIKHVACGDFFTAELTDRGIIMT, for which the protein stability index worked out at 3.04.

Turning to VTIKHVACGDFFTADLTDRGIIMT, the protein stability index turned out to be 3.14.

As to VTIKHVACGDFFTAYLTDRGIIMT, the protein stability index is 2.42.

Turning to VTIKHVACGDFFTAKLTDRGIIMT, the protein stability index came to 2.58.

Turning to VTIKHVACGDFFTAVLTDRGIIMT, the protein stability index is 2.5.

In the case of VTIKHVACGDFFTANLTDRGIIMT, the protein stability index came out at 4.23.

For VTIKHVACGDFFTAMLTDRGIIMT, the protein stability index worked out at 4.25.

For the variant VTIKHVACGDFFTATLTDRGIIMT, the protein stability index stood at 3.74.

With VTIKHVACGDFFTAHLTDRGIIMT, the protein stability index is 1.61.

VTIKHVACGDFFTACLTPRGIIMT: the protein stability index was 3.31.

In the case of VTIKHVACGDFFTACLTGRGIIMT, the protein stability index stood at 3.08.

In the case of VTIKHVACGDFFTACLTYRGIIMT, the protein stability index is 3.05.

For VTIKHVACGDFFTACLTARGIIMT, the protein stability index was found to be 4.82.

For the variant VTIKHVACGDFFTACLTKRGIIMT, the protein stability index was 4.11.

With VTIKHVACGDFFTACLTFRGIIMT, the protein stability index was 4.13.

Take VTIKHVACGDFFTACLTLRGIIMT: the protein stability index is 2.09.

As for VTIKHVACGDFFTACLTNRGIIMT, the protein stability index came out at 3.07.

Take VTIKHVACGDFFTACLTCRGIIMT: the protein stability index is 2.02.

VTIKHVACGDFFTACLTSRGIIMT: the protein stability index was 4.67.

For VTIKHVACGDFFTACLTWRGIIMT, the protein stability index amounted to 3.08.

In the case of VTIKHVACGDFFTACLTTRGIIMT, the protein stability index came to 2.72.

For the variant VTIKHVACGDFFTACLTVRGIIMT, the protein stability index was 3.85.

Turning to VTIKHVACGDFFTACLTRRGIIMT, the protein stability index was 5.42.

In the case of VTIKHVACGDFFTACLTDRDIIMT, the protein stability index is 2.04.

Consider VTIKHVACGDFFTACLTDRHIIMT, for which the protein stability index is 3.22.

Consider VTIKHVACGDFFTACLTDRNIIMT, for which the protein stability index is 2.75.

Turning to VTIKHVACGDFFTACLTDRKIIMT, the protein stability index was found to be 2.35.

Turning to VTIKHVACGDFFTACLTDRLIIMT, the protein stability index amounted to 2.91.

As for VTIKHVACGDFFTACLTDRFIIMT, the protein stability index is 2.21.

VTIKHVACGDFFTACLTDRCIIMT: the protein stability index is 2.94.

Consider VTIKHVACGDFFTACLTDRQIIMT, for which the protein stability index turned out to be 2.06.

VTIKHVACGDFFTACLTDRIIIMT: the protein stability index was found to be 2.82.

Consider VTIKHVACGDFFTACLTDRAIIMT, for which the protein stability index came to 3.45.

On to VTIKHVACGDFFTACLTDRMIIMT, for which the protein stability index was found to be 3.22.

With VTIKHVACGDFFTACLTDRPIIMT, the protein stability index is 3.42.

Regarding VTIKHVACGDFFTWCLTDRGIIMT, the protein stability index worked out at 2.01.

With VTIKHVACGDFFTPCLTDRGIIMT, the protein stability index amounted to 2.68.

For the variant VTIKHVACGDFFTKCLTDRGIIMT, the protein stability index was 1.9.

On to VTIKHVACGDFFTYCLTDRGIIMT, for which the protein stability index worked out at 2.65.

VTIKHVACGDFFTRCLTDRGIIMT: the protein stability index amounted to 2.34.

For VTIKHVACGDFFTCCLTDRGIIMT, the protein stability index turned out to be 2.65.

Take VTIKHVACGDFFTTCLTDRGIIMT: the protein stability index was 3.17.

Turning to VTIKHVACGDFFTLCLTDRGIIMT, the protein stability index stood at 2.31.

For the variant VTIKHVACGDFFTVCLTDRGIIMT, the protein stability index amounted to 2.55.

As to VTIKHVACGDFFTDCLTDRGIIMT, the protein stability index is 1.98.

As to VTIKHVACGDFFTQCLTDRGIIMT, the protein stability index was found to be 1.12.

In the case of VTIKHVACGDFFTMCLTDRGIIMT, the protein stability index worked out at 3.53.

Take VTIKHVACGDFFTGCLTDRGIIMT: the protein stability index is 2.51.

Take VTIKHVACGDFFTECLTDRGIIMT: the protein stability index stood at 1.47.

As for VTIKHVACGDFFTICLTDRGIIMT, the protein stability index stood at 2.87.

In the case of VTIKHVACGDFFTHCLTDRGIIMT, the protein stability index came out at 1.86.

Take VTIKHVACIDFFTACLTDRGIIMT: the protein stability index worked out at 3.19.

For the variant VTIKHVACDDFFTACLTDRGIIMT, the protein stability index was determined as 3.

For the variant VTIKHVACEDFFTACLTDRGIIMT, the protein stability index was 2.66.

As to VTIKHVACHDFFTACLTDRGIIMT, the protein stability index was 2.74.

On to VTIKHVACMDFFTACLTDRGIIMT, for which the protein stability index worked out at 3.93.

For VTIKHVACTDFFTACLTDRGIIMT, the protein stability index was 3.5.

For the variant VTIKHVACKDFFTACLTDRGIIMT, the protein stability index was 2.98.

As to VTIKHVACRDFFTACLTDRGIIMT, the protein stability index amounted to 3.64.

Turning to VTIKHVACSDFFTACLTDRGIIMT, the protein stability index stood at 3.21.

As to VTIKHVACWDFFTACLTDRGIIMT, the protein stability index came out at 3.39.

On to VTIKHVACFDFFTACLTDRGIIMT, for which the protein stability index came out at 2.38.

For VTIKHVACCDFFTACLTDRGIIMT, the protein stability index was found to be 1.88.

Turning to VTIKHVACADFFTACLTDRGIIMT, the protein stability index stood at 2.32.

With VTIKHVACYDFFTACLTDRGIIMT, the protein stability index came to 3.79.

In the case of VTIKHVACGDFFTACLTDPGIIMT, the protein stability index came to 4.49.

In the case of VTIKHVACGDFFTACLTDKGIIMT, the protein stability index is 3.78.

As to VTIKHVACGDFFTACLTDHGIIMT, the protein stability index was 1.81.

Regarding VTIKHVACGDFFTACLTDNGIIMT, the protein stability index came out at 3.56.

Consider VTIKHVACGDFFTACLTDDGIIMT, for which the protein stability index turned out to be 3.29.

As for VTIKHVACGDFFTACLTDIGIIMT, the protein stability index was 2.96.

Regarding VTIKHVACGDFFTACLTDWGIIMT, the protein stability index was found to be 3.11.

For the variant VTIKHVACGDFFTACLTDMGIIMT, the protein stability index amounted to 2.32.

As to VTIKHVACGDFFTACLTDTGIIMT, the protein stability index was 2.77.

In the case of VTIKHVACGDFFTACLTDAGIIMT, the protein stability index is 2.01.

Turning to VTIKHVACGDFFTACLTDSGIIMT, the protein stability index amounted to 2.97.

Consider VTIKHVACGDFFTACLTDVGIIMT, for which the protein stability index stood at 2.56.

Take VTIKHVACGDFFTACLTDQGIIMT: the protein stability index worked out at 1.92.

Regarding VTIKHVACGDFFTACLTDEGIIMT, the protein stability index worked out at 3.52.

As for VTIKHVACGDFFTACLTDGGIIMT, the protein stability index came out at 3.25.

With VTIKHVACGDFFTACLTDYGIIMT, the protein stability index came to 2.32.

As to VTIKHVACGDFFTACLTDCGIIMT, the protein stability index came out at 2.48.

Consider VTIKHVAVGDFFTACLTDRGIIMT, for which the protein stability index was 2.48.

VTIKHVANGDFFTACLTDRGIIMT: the protein stability index amounted to 3.4.

Consider VTIKHVAYGDFFTACLTDRGIIMT, for which the protein stability index came out at 3.47.

For VTIKHVATGDFFTACLTDRGIIMT, the protein stability index came to 2.44.

In the case of VTIKHVAWGDFFTACLTDRGIIMT, the protein stability index came out at 2.41.

On to VTIKHVARGDFFTACLTDRGIIMT, for which the protein stability index was 3.18.

Consider VTIKHVAQGDFFTACLTDRGIIMT, for which the protein stability index worked out at 3.4.

With VTIKHVAPGDFFTACLTDRGIIMT, the protein stability index was 2.4.

Values taken from the supplement of paper PMC10567573.
